Assay results as given in patent US5445951A, “Regioselective enzymatic deacylation of sucrose esters in anhydrous organic media” (priority 1993, dated 1995).

B1: papain: Sigma, Papaya latex (protein, UniProt P00784 134-345, looked up)
Papain: IPEYVDWRQKGAVTPVKNQGSCGSCWAFSAVVTIEGIIKIRTGNLNEYSEQELLDCDRRSYGCNGGYPWSALQLVAQYGIHYRNTYPYEGVQRYCRSREKGPYAAKTDGVRQVQPYNEGALLYSIANQPVSVVLEAAGKDFQLYRGGIFVGPCGNKVDHAVAAVGYGPNYILIKNSWGTGWGENGYIRIKRGTGNSYGVCGLYTSSFYPVKN
B2: alcalase: Novo Nordisk, Bacillus licheniformis (protein, UniProt P00780 106-379, looked up)
Subtilisin Carlsberg: AQTVPYGIPLIKADKVQAQGFKGANVKVAVLDTGIQASHPDLNVVGGASFVAGEAYNTDGNGHGTHVAGTVAALDNTTGVLGVAPSVSLYAVKVLNSSGSGSYSGIVSGIEWATTNGMDVINMSLGGASGSTAMKQAVDNAYAKGVVVVAAAGNSGSSGNTNTIGYPAKYDSVIAVGAVDSNSNRASFSSVGAELEVMAPGAGVYSTYPTNTYATLNGTSMASPHVAGAAALILSKHPNLSASQVRNRLSSTATYLGSSFYYGKGLINVEAAAQ
B3: lipase type II: Sigma, porcine pancreas, 50 U/mg (protein, UniProt P00591 1-450, looked up)
Pancreatic triacylglycerol …: SEVCFPRLGCFSDDAPWAGIVQRPLKILPWSPKDVDTRFLLYTNQNQNNYQELVADPSTITNSNFRMDRKTRFIIHGFIDKGEEDWLSNICKNLFKVESVNCICVDWKGGSRTGYTQASQNIRIVGAEVAYFVEVLKSSLGYSPSNVHVIGHSLGSHAAGEAGRRTNGTIERITGLDPAEPCFQGTPELVRLDPSDAKFVDVIHTDAAPIIPNLGFGMSQTVGHLDFFPNGGKQMPGCQKNILSQIVDIDGIWEGTRDFVACNHLRSYKYYADSILNPDGFAGFPCDSYNVFTANKCFPCPSEGCPQMGHYADRFPGKTNGVSQVFYLNTGDASNFARWRYKVSVTLSGKKVTGHILVSLFGNEGNSRQYEIYKGTLQPDNTHSDEFDSDVEVGDLQKVKFIWYNNNVINPTLPRVGASKITVERNDGKVYDFCSQETVREEVLLTLNPC

What was measured:
[1] = Activity and regioselectivity of enzymes for SOA deacetylation; assay type: biochemical; conditions: for buffer pH (optimal pH for enzyme activity in anhydrous diisopropyl ether): SOA deacetylation; for % conv: total of all sucrose hepta and hexa acetates; for regioselectivity of SOA deacetylation: in words
Description: An important aspect of this work was to assign, unequivocally, the structures of all sucrose hepta-, hexa-, and pentaacetates obtained by enzymatic deacetylation of SOA. These structures were assigned by perdeuterioacetylation followed by ^1 H-NMR, as described by Rathbone E. B., Carbohydr. Res., 205,402 (1990).
HPLC analysis. Routine screening was performed on a Supelcosil LC-18-DB column (150×4.6 mm, 5μ) using an isocratic mode with either acetonitrile/water (35/65) or acetonitrile/water (60/40) as eluant for reactions involving sucrose octaacetate (SOA) and sucrose octapropionate (SOP), respectively. All flow rates were 1.0 ml/min with UV detection at 220 nm. To identify all products from SOA deacetylation, a gradient mode was employed using 15% to 35% acetonitrile in water over 40 minutes followed by 35/65 acetonitrile/water isocratic elution for 20 minutes. To screen nucleophiles for SOA deacetylation, an isocratic elution mode was employed using 30/70 acetonitrile/water for 16 min followed by a gradient from 30% to 35% acetonitrile in water over 5 min and finally isocratic elution using 35/65 acetonitrile/water for 16 min. To assess the enzyme regiochemistry for SOA deacetylation, an isocratic elution mode was employed using 25/75 acetonitrile/water for 55 minutes.
Identification of the Sucrose Hepta, Hexa or Pentaacetates Obtained Enzymatically. The fraction of sucrose hepta, hexa or pentaacetates were identified as follows. The compound(s) of interest was dissolved in 1.0 ml 99.0 atom % pyridine--d5 followed by addition of 1.0 ml 99 +atom % acetic anhydride--d6. The resulting solution was shaken at 45° C. and 300 RPM for several hours until TLC analysis (silica gel, 9/1 CHCl3 /MeOH) indicated complete reaction. The reaction mixture was evaporated in vacuo and the residue washed several times with water to remove residual pyridine-d5 and/or acetic anhydride-d6. The resulting oily solid was dissolved in 5 ml off chloroform and passed through Whatmann 12.5 cm 1 PS silicone treated filter paper to remove water.
(§1) The pH of commercial powdered enzymes was adjusted in the following way: The enzyme (3 g) was dissolved in 25 ml of an appropriate buffer and the pH adjusted with dilute NaOH or citric/phosphoric acid solution. Cold acetone (37.5 ml at -20° C.) was added and the precipitate collected on a medium porosity glass funnel and dried overnight at 2 millitorr. The protein pellet was ground to a fine powder and equilibrated at 4° C. over saturated aqueous potassium carbonate (RH: 43%) for 24 hrs.
(§2) Enzyme and Solvent Screening for SOA Deacetylation. A scintillation vial was charged successively with 100 mg of powdered enzyme as received or prepared as described and 1.0 ml of 20 mM sucrose octaacetate (SOA) dissolved in an organic solvent. Following a 5 sec sonication, the vial was incubated in a controlled-temperature shaker at 45° C. and 300 RPM for 24 hrs. A 200 μl aliquot of the reaction mixture was withdrawn and centrifuged. The supernatant was collected and evaporated under a stream of N2. The residue was reconstituted in 200 μl of acetonitrile and 10 μl of this solution was analyzed by HPLC.

[2] = as obtained from supplier; cited from earlier work
[3] = SOP hydrolytic enzyme screen in heptane with n-butanol; assay type: biochemical; conditions: 24 hrs; for SheptaP's ([…]): HPLC peak […]; for SOP: residual SOP; as to SheptaP's ([…]): HPLC peak 8.2 min
Description: To extend the scope and utility of this study, sucrose octapropionate was synthesized and used as substrate in enzyme catalyzed deacylation reactions. […] The hydrolytic enzymes were screened for their capability to deacylate SOP in heptane with n-butanol as the nucleophile. After 24 hrs incubation aliquots were analyzed by HPLC.
Enzyme screening for SOP deacylation in heptane. A scintillation vial was charged successively with 100 mg of powdered enzyme as received or prepared as described and 1.0 ml of 20 mM sucrose octapropionate (SOP) and 200 mM butanol dissolved in an organic solvent. Following a 5 sec sonication, the vial was incubated in a controlled-temperature shaker at 45° C. and 300 RPM for 24 hrs. A 200 μl aliquot of the reaction mixture was withdrawn and centrifuged. The supernatant was collected and 10 μl of this solution was analyzed by HPLC.

[4] = SOA deacetylation catalyzed by pH precipitated enzymes in diisopropyl ether; assay type: biochemical; conditions: for buffer pH (optimal pH for enzyme activity in anhydrous solvents): SOA deacetylation; for SheptaAs / ShexaAs / SOA: diisopropyl ether, 24 hrs incubation, HPLC; for SOA: residual SOA
Description: A wide variety of hydrolytic enzymes were initially screened for their ability to regioselectively deacetylate SOA in organic solvents. […] Enzyme activity is dependent upon the presence of a minimum shell of water surrounding the enzyme. […] It is known that one way to improve the catalytic power of an enzyme in organic solvent is to use it in the right ionic state.
as §1, §2

[5] = SOP deacylation catalyzed by pH precipitated enzymes in diisopropyl ether; assay type: biochemical; conditions: for buffer pH (optimal pH for enzyme activity in anhydrous media): SOP deacylation; for SOP / SheptaP's / ShexaP's: diisopropyl ether, 24 hrs; for capability of deacetylating SOP: pH precipitated, in words
Description: To increase the number and/or activities of enzymes active with SOP, pH precipitation experiments, as described for SOA, were undertaken.
as §1

[6] = assay type: physicochemical; conditions: estimated from known log P values / increments
Excerpt: ^a) log P is a measurement of the solvent hydrophobicity (logarithm o
the solvent partition coefficient between noctanol and water [Rekker, "Th
Hydrophobic Fragmental Constant", Elsevier, Amsterdam (1977)]). The log P
values from this table are from Laane et al. , Biotechnol Bioeng. 30,81

lipase AY 30 = test: Effect of the solvent on lipase AY 30 SOA deacetylation; assay type: biochemical, Candida cylindracea; conditions: lipase AY 30, solvent as labelled, 24 hrs
[7] = Solubility in hydrophobic solvents; assay type: physicochemical; conditions: more hydrophobic solvents, e.g., hexane, cyclohexane, heptane, octane
[8] = HPLC sucrose heptaacetate peak height

| Molecule | buffer pH (optimal pH for enzyme activity in anhydrous diisopropyl ether) [1] | % conv [1] | enzyme activity [2] | SheptaP's ([…]) [3] | SOP [3] | buffer pH (optimal pH for enzyme activity in anhydrous solvents) [4] | SheptaAs [4] | ShexaAs [4] | SOA [4] | buffer pH (optimal pH for enzyme activity in anhydrous media) [5] | SOP [5] | SheptaP's [5] | ShexaP's [5] | log P [6] | SOA (lipase AY 30) | SheptaA (lipase AY 30) | ShexaA (lipase AY 30) | further results |
| --- | --- | --- | --- | --- | --- | --- | --- | --- | --- | --- | --- | --- | --- | --- | --- | --- | --- | --- |
| chymotrypsin | 8.0 | < 6% | 48 U/mg | 3.9 | 96.1% | 8.0 | 2.5% | 0% | 97.5% | 8.0 | 98.2% | 1.8% | 0% | – | – | – | – | – |
| CC1(C)CCC(C)(C)O1 [2,2,5,5-tetramethyl THF, 2,2,5,5-tetramethyltetrahydrofuran] | – | – | – | – | – | – | – | – | – | – | – | – | – | 2.5 | 68.4% | 31.6% | – | – |
| CC1CCC(C)O1 (stereo not drawn) [2,5-dimethyl THF, 2,5-dimethyltetrahydrofuran] | – | – | – | – | – | – | – | – | – | – | – | – | – | 1.5 | 96.2% | 3.8% | 0% | – |
| bromelain | – | – | 22.9 U/mg | 0.7 | 99.0% | – | – | – | – | – | – | – | – | – | – | – | – | SheptaP's (9.6 min) ([3]; HPLC peak 9.6 min): 0.3 |
| CCOCCOCC [ethylene glycol diethyl ether] | – | – | – | – | – | – | – | – | – | – | – | – | – | 0.87 | 85.0% | 13.5% | 1.5% | – |
| CCC(=O)OC[C@H]1O[C@@](COC(=O)CC)(O[C@H]2O[C@H](COC(=O)CC)[C@@H](OC(=O)CC)[C@H](OC(=O)CC)[C@H]2OC(=O)CC)[C@@H](OC(=O)CC)[C@@H]1OC(=O)CC [SOP, sucrose octapropionate] | – | – | – | – | – | – | – | – | – | – | – | – | – | – | – | – | – | solubility versus SOA [7]: significantly enhanced solubility |
| CC1CCCO1 (stereo not drawn) [2-methyl THF, 2-methyltetrahydrofuran] | – | – | – | – | – | – | – | – | – | – | – | – | – | 1.0 | 96.2% | 3.8% | 0% | – |
| B1 | – | – | 2.8 U/mg | 0.9 | 98.8% | – | – | – | – | – | – | – | – | – | – | – | – | SheptaP's (7.0 min) ([3]; HPLC peak 7.0 min): 0.3 |
| B2 | 9.0 | 28.1% | – | – | – | 9.0 | 39.7% | 10.9% | 49.4% | 9.0 | 81.8% | 15.9% | 2.3% | – | – | – | – | regiochemistry 1'OH [1, 8]: 13; regiochemistry 6'OH [1, 8]: 2; regioselectivity of SOA deacetylation [1]: primarily at 1'- position with some reaction occurring at the 6'- position; regioselectivity of SOA deacetylation ([1]; listed as Alcalase): at the 1' position and secondarily at the 6' position; capability of deacetylating SOP [5]: capable of deacetylating SOP |
| B3 | 7.0 | 14.1% | 50 U/mg | 1.7 | 98.1% | 7.0 | 13.5% | 0.6% | 85.9% | 7.0 | 96.5% | 3.5% | 0% | – | – | – | – | regiochemistry 4'OH [1, 8]: 1; regiochemistry 6'OH [1, 8]: 1; regioselectivity of SOA deacetylation [1]: the primary deacetylation product is the 4'- OH heptaacetate; regioselectivity of SOA deacetylation ([1]; listed as Porcine pancreatic lipase): at the 4' position; SheptaP's (9.2 min) ([3]; HPLC peak 9.2 min): 0.2; BuOpropionate ([3]; butyl propionate formed, peak area): 59 cAUs; capability of deacetylating SOP [5]: capable of deacetylating SOP |
